Test results taken from patent publication WO2025037032A1.

Biological target: coagulation Factor VIII (human) (UniProt P00451)
Experiment: VWF:FVIIIB enzyme immunoassay; VWF of human plasma captured with rabbit anti-human VWF F(ab')2, bound FVIII detected; plasma pre-incubated 17 h at 37°C with 200 or 600 nM one-arm anti-VWF CK domain antibodies

Sequence of UniProt P00451 (P00451 20-2351): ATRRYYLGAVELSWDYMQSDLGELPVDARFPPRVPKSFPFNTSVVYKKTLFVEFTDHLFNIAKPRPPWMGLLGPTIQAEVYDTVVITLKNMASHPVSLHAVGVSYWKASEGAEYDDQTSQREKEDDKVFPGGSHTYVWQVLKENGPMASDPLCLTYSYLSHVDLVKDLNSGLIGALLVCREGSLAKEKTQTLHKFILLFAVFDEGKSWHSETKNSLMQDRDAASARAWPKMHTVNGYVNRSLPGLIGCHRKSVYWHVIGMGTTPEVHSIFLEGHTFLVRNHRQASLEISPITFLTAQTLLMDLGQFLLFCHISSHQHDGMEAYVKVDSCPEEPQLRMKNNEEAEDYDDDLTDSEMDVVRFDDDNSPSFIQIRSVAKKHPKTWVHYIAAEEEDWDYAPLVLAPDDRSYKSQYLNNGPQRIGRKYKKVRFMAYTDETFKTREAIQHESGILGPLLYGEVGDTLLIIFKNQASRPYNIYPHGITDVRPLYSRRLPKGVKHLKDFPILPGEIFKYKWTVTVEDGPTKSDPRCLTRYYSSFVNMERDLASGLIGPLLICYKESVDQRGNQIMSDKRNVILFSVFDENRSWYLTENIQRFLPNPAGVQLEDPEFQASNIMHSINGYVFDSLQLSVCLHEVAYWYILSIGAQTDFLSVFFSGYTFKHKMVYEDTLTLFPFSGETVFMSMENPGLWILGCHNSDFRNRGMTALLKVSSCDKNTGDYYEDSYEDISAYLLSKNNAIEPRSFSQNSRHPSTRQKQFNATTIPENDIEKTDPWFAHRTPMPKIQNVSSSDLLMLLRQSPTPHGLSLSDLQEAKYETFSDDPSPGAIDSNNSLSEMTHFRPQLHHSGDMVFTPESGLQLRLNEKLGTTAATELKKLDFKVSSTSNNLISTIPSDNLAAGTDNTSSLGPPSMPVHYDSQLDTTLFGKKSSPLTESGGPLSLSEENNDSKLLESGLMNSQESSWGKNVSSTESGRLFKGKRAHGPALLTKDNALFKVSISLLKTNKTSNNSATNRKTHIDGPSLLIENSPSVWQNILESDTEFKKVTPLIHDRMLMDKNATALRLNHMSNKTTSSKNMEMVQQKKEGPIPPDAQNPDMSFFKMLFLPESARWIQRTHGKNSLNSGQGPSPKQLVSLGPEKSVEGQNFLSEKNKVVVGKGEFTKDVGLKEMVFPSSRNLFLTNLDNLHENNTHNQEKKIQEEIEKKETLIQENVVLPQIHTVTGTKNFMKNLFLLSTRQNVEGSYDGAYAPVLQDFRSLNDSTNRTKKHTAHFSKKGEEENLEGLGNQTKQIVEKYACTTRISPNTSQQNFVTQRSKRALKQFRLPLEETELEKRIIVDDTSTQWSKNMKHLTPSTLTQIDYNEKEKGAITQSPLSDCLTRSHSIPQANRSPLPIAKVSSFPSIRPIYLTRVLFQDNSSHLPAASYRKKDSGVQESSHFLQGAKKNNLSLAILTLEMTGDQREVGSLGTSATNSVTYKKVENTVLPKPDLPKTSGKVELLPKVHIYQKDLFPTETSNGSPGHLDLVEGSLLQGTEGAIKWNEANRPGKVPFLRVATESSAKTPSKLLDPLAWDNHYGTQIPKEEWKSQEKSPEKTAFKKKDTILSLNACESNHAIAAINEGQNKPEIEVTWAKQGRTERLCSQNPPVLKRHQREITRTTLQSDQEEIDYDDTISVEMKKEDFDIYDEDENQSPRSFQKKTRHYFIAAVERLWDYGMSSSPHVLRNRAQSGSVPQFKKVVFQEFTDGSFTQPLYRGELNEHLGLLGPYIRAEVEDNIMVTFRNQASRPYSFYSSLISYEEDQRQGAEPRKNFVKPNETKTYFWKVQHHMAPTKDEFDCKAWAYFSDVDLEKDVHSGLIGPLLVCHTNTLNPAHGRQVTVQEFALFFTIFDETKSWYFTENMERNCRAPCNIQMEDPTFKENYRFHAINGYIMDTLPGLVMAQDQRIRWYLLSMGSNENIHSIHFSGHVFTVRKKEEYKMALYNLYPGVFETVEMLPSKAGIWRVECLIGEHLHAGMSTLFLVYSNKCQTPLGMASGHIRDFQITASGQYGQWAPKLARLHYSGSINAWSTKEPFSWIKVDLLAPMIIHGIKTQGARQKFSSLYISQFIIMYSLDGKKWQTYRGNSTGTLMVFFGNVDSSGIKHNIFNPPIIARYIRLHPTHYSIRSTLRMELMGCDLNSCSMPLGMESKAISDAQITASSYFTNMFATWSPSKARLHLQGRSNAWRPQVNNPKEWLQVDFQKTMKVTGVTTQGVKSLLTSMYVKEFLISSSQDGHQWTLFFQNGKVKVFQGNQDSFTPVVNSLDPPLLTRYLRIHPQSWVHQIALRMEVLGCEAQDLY

Q: For “human plasma-derived VWF (from UniProt P04275 764-2813)”, which mean level of VWF:FVIII relative to untreated donor-matched plasma is on record?
A: Its mean level of VWF:FVIII relative to untreated donor-matched plasma is over 80%.
